According to US20250018038A1 (UNIVERSITY OF CHICAGO, published 2025):

B1: SUR-N-53 (Fab, V domains shown)
VH: EVQLVESGGGLVQPGGSLRLSCAASGFNVSSSYIHWVRQAPGKGLEWVASIYSYYGSTSYADSVKGRFTISADTSKNTAYLQMNSLRAEDTAVYYCARSFTEKWAYSWAIDYWGQGTLVTVSS
VL: DIQMTQSPSSLSASVGDRVTITCRASQSVSSAVAWYQQKPGKAPKLLIYSASSLYSGVPSRFSGSRSGTDFTLTISSLQPEDFATYYCQQYAWSLFTFGQGTKVEIKR
notes: also called SUR-N-53 Fab
B2: SUR-N-28 (Fab, V domains shown)
VH: EVQLVESGGGLVQPGGSLRLSCAASGFNFSSSYIHWVRQAPGKGLEWVASIYSSYGYTSYADSVKGRFTISADTSKNTAYLQMNSLRAEDTAVYYCARSYYYQYSGGWRGYYHALDYWGQGTLVTVSS
VL: DIQMTQSPSSLSASVGDRVTITCRASQSVSSAVAWYQQKPGKAPKLLIYSASSLYSGVPSRFSGSRSGTDFTLTISSLQPEDFATYYCQQSSSSLITFGQGTKVEIKR
notes: also called SUR-N-28 Fab
B3: SUR-FL-26 (Fab, V domains shown)
VH: EVQLVESGGGLVQPGGSLRLSCAASGFNVSYSSIHWVRQAPGKGLEWVASISPYYGYTYYADSVKGRFTISADTSKNTAYLQMNSLRAEDTAVYYCARWYFEYPYYMWGLDYWGQGTLVTVSS
VL: DIQMTQSPSSLSASVGDRVTITCRASQSVSSAVAWYQQKPGKAPKLLIYSASSLYSGVPSRFSGSRSGTDFTLTISSLQPEDFATYYCQQSYKPPITFGQGTKVEIKR
notes: also called SUR-FL-26 Fab
B4: SUR-FL-24 (Fab, V domains shown)
VH: EVQLVESGGGLVQPGGSLRLSCAASGFNFYSSSIHWVRQAPGKGLEWVASIYPYYSSTSYADSVKGRFTISADTSKNTAYLQMNSLRAEDTAVYYCARWYHYYSVQQYGLDYWGQGTLVTVSS
VL: DIQMTQSPSSLSASVGDRVTITCRASQSVSSAVAWYQQKPGKAPKLLIYSASSLYSGVPSRFSGSRSGTDFTLTISSLQPEDFATYYCQQSTSFPITFGQGTKVEIKR
notes: also called SUR-FL-24 Fab
B5: SUR-FL-47 (Fab, V domains shown)
VH: EVQLVESGGGLVQPGGSLRLSCAASGFNVSYSSIHWVRQAPGKGLEWVASIYSYYGYTSYADSVKGRFTISADTSKNTAYLQMNSLRAEDTAVYYCARWPHYWGQGVSSMDYWGQGTLVTVSS
VL: DIQMTQSPSSLSASVGDRVTITCRASQSVSSAVAWYQQKPGKAPKLLIYSASSLYSGVPSRFSGSRSGTDFTLTISSLQPEDFATYYCQQSYYFPVTFGQGTKVEIKR
notes: also called SUR-FL-47 Fab
B6: SUR-FL-31 (Fab, V domains shown)
VH: EVQLVESGGGLVQPGGSLRLSCAASGFNFSSSSIHWVRQAPGKGLEWVASISSYSGYTYYADSVKGRFTISADTSKNTAYLQMNSLRAEDTAVYYCARGKQKSYGQWYFYYWAIDYWGQGTLVTVSS
VL: DIQMTQSPSSLSASVGDRVTITCRASQSVSSAVAWYQQKPGKAPKLLIYSASSLYSGVPSRFSGSRSGTDFTLTISSLQPEDFATYYCQQSSSSLITFGQGTKVEIKR
notes: also called SUR-FL-31 Fab
B7: SUR-N-09 (Fab, V domains shown)
VH: EVQLVESGGGLVQPGGSLRLSCAASGFNFYYSSIHWVRQAPGKGLEWVASISPYSGYTSYADSVKGRFTISADTSKNTAYLQMNSLRAEDTAVYYCARYMYYGWALDYWGQGTLVTVSS
VL: DIQMTQSPSSLSASVGDRVTITCRASQSVSSAVAWYQQKPGKAPKLLIYSASSLYSGVPSRFSGSRSGTDFTLTISSLQPEDFATYYCQQGQWWGLITFGQGTKVEIKR
notes: also called SUR-N-09 Fab
B8: SUR-FL-23 (Fab, V domains shown)
VH: EVQLVESGGGLVQPGGSLRLSCAASGFNFSSSSIHWVRQAPGKGLEWVASISSYSSSTSYADSVKGRFTISADTSKNTAYLQMNSLRAEDTAVYYCARYMVSMWSYSWYVKWYAMDYWGQGTLVTVSS
VL: DIQMTQSPSSLSASVGDRVTITCRASQSVSSAVAWYQQKPGKAPKLLIYSASSLYSGVPSRFSGSRSGTDFTLTISSLQPEDFATYYCQQSSSSLITFGQGTKVEIKR
notes: also called SUR-FL-23 Fab
B9: SUR-N-36 Fab (Fab, V domains shown)
VH: EVQLVESGGGLVQPGGSLRLSCAASGFNVSYSSIHWVRQAPGKGLEWVASIYPYYGYTSYADSVKGRFTISADTSKNTAYLQMNSLRAEDTAVYYCAREEYSTVQYWYYYWYPGMDYWGQGTLVTVSS
VL: DIQMTQSPSSLSASVGDRVTITCRASQSVSSAVAWYQQKPGKAPKLLIYSASSLYSGVPSRFSGSRSGTDFTLTISSLQPEDFATYYCQQYMYSPITFGQGTKVEIKR
B10: SUR-N-40 Fab (Fab, V domains shown)
VH: EVQLVESGGGLVQPGGSLRLSCAASGFNFSSSSIHWVRQAPGKGLEWVAYIYPSYGYTSYADSVKGRFTISADTSKNTAYLQMNSLRAEDTAVYYCARSLYSKMWYYGSYYFYQVGLDYWGQGTLVTVSS
VL: DIQMTQSPSSLSASVGDRVTITCRASQSVSSAVAWYQQKPGKAPKLLIYSASSLYSGVPSRFSGSRSGTDFTLTISSLQPEDFATYYCQQGYKYLVTFGQGTKVEIKR
B11: SUR-FL-29 Fab (Fab, V domains shown)
VH: EVQLVESGGGLVQPGGSLRLSCAASGFNVSYYSIHWVRQAPGKGLEWVASIYPYYGSTSYADSVKGRFTISADTSKNTAYLQMNSLRAEDTAVYYCARWQFYGYYHGLYFTDLGIDYWGQGTLVTVSS
VL: DIQMTQSPSSLSASVGDRVTITCRASQSVSSAVAWYQQKPGKAPKLLIYSASSLYSGVPSRFSGSRSGTDFTLTISSLQPEDFATYYCQQSGGFPITFGQGTKVEIKR
B12: SUR-N-07 (Fab, V domains shown)
VH: EVQLVESGGGLVQPGGSLRLSCAASGFNFSSSSIHWVRQAPGKGLEWVASISPYSGYTYYADSVKGRFTISADTSKNTAYLQMNSLRAEDTAVYYCARWYWAYPYWWYAMDYWGQGTLVTVSS
VL: DIQMTQSPSSLSASVGDRVTITCRASQSVSSAVAWYQQKPGKAPKLLIYSASSLYSGVPSRFSGSRSGTDFTLTISSLQPEDFATYYCQQSWGPPVTFGQGTKVEIKR
notes: also called SUR-N-07 Fab
B13: SUR-FL-52 (Fab, V domains shown)
VH: EVQLVESGGGLVQPGGSLRLSCAASGFNFSSSSIHWVRQAPGKGLEWVASIYPYSGSTYYADSVKGRFTISADTSKNTAYLQMNSLRAEDTAVYYCARWDFGYYYWYSAIDYWGQGTLVTVSS
VL: DIQMTQSPSSLSASVGDRVTITCRASQSVSSAVAWYQQKPGKAPKLLIYSASSLYSGVPSRFSGSRSGTDFTLTISSLQPEDFATYYCQQYWYTLITFGQGTKVEIKR
notes: also called SUR-FL-52 Fab
B14: SUR-FL-27 (Fab, V domains shown)
VH: EVQLVESGGGLVQPGGSLRLSCAASGFNVYSSYIHWVRQAPGKGLEWVASIYPSSGYTYYADSVKGRFTISADTSKNTAYLQMNSLRAEDTAVYYCARMSYYSWYYHSVYMYGLDYWGQGTLVTVSS
VL: DIQMTQSPSSLSASVGDRVTITCRASQSVSSAVAWYQQKPGKAPKLLIYSASSLYSGVPSRFSGSRSGTDFTLTISSLQPEDFATYYCQQASSDHSLITFGQGTKVEIKR
notes: also called SUR-FL-27 Fab
B15: SUR-FL-22 (Fab, V domains shown)
VH: EVQLVESGGGLVQPGGSLRLSCAASGFNFYSSYIHWVRQAPGKGLEWVASIYSYSSSTSYADSVKGRFTISADTSKNTAYLQMNSLRAEDTAVYYCARAGWYWYYGIQFAFDYWGQGTLVTVSS
VL: DIQMTQSPSSLSASVGDRVTITCRASQSVSSAVAWYQQKPGKAPKLLIYSASSLYSGVPSRFSGSRSGTDFTLTISSLQPEDFATYYCQQQRYGSLITFGQGTKVEIKR
notes: also called SUR-FL-22 Fab
B16: SUR-FL-25 (Fab, V domains shown)
VH: EVQLVESGGGLVQPGGSLRLSCAASGFNVYSSSIHWVRQAPGKGLEWVASIYPYYSYTSYADSVKGRFTISADTSKNTAYLQMNSLRAEDTAVYYCARWKKSRSGGMWGMDYWGQGTLVTVSS
VL: DIQMTQSPSSLSASVGDRVTITCRASQSVSSAVAWYQQKPGKAPKLLIYSASSLYSGVPSRFSGSRSGTDFTLTISSLQPEDFATYYCQQYSSFPITFGQGTKVEIKR
notes: also called SUR-FL-25 Fab

Assays:
[1] = target: T1, Survivin (purified recombinant Survivin protein) (human, UniProt O15392 1-140, limits assumed, biotinylated on the Avi-tag by BirA (antigens for selection and ELISA)); experiment: multipoint protein ELISA: 50 nM immobilised target, 3-fold serial dilutions of purified Fab, protein L-HRP, sigmoidal fit
T1 construct: also called Baculoviral IAP repeat-containing protein 5; BIRC5
T1 sequence (O15392 1-140 limits assumed): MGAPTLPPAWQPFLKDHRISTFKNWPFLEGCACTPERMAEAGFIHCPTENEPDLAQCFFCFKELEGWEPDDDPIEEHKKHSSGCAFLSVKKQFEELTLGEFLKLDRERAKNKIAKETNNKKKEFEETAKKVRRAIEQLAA
Procedure: Protein based multipoint ELISA was performed to estimate the affinity of the generated unique Fabs to their cognate antigens. A fixed concentration of the immobilized target (50 nM) on ELISA plate was incubated with 3-fold serial dilutions of the purified Fabs starting from […] for 15 min. The plates were washed and the bound antigen-Fab complexes were incubated with H1RP-conjugated protein L (1:5000 dilution in PBST). As with phage ELISA, the plates were again washed, developed with TMB substrate and quenched with 1.0 M HCl, and absorbance (A450) was determined. To determine the affinity, the data were fitted in a non-linear sigmoidal function with variable slope in GraphPad PRISM and EC50 value was calculated (FIG. 2).

[2] = target: T2, Survivin of murine tumor cells (CT-26, MC-38) (mouse, UniProt O70201); experiment: flow cytometry of live murine colon tumor cells, 200 nM Fab, anti-human F(ab')2-A647 secondary
T2 construct: also called murine survivin
T2 sequence (O70201 whole entry): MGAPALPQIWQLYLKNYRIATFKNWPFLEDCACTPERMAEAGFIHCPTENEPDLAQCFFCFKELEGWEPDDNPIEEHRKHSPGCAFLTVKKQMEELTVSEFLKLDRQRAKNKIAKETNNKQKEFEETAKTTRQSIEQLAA
Procedure: (§1) Human or murine tumor cells were trypsinized, washed and resuspended in Flow buffer (1×PBS supplemented with 2% FBS) and added to a 96-well plate (#3799, Costar). 200 nM primary CPC Fab was mixed with 0.5M cells and incubated at 37 C for 20 min. […] Samples were analyzed by flow cytometry using CytoFLEX (Beckman Coulter) and mean fluorescence intensity (MFI) data was extracted using the FlowJo software (FIG. 5A-E, FIG. 6). Human peripheral blood mononuclear cells (PBMCs) derived from a single patient were used as a source of healthy human cells. PBMCs were counted, split and spun down 400×g 5 min. Cells were resuspended in Flow buffer (1×PBS supplemented with 2% FBS) and pre-incubated with TruStain FcX (1:20, Biolegend 422302) for 10 min at 37 C, followed by 200 nM primary Fab incubation at 37 for 20 min. […] Mean fluorescence intensity (MFI) data was extracted using the FlowJo software (FIG. 5F).

[3] = target: T1, Survivin (purified recombinant Survivin …); experiment: SPR: target immobilised on NTA chip by His-tag, 2-fold serial dilutions of Fab, 1:1 Langmuir fit
Procedure: The targets were immobilized onto a nitrilotriacetic acid (NTA) sensor chip via His-tag. 2-fold serial dilutions of the Fab were injected following ligand immobilization on the sensor chip. For each kinetic assay at least five dilutions of the Fab were tested. The data were fitted using 1:1 Langmuir Model to obtain the on-rate, off-rate and the affinity (KD) of the Fab-target interaction. (FIG. 4).

[4] = target: T3, cell surface survivin on cancer cells (human, UniProt O15392 1-142); experiment: flow cytometry of live cells, 200 nM Fab, anti-human F(ab')2-A647 secondary
T3 construct: whole, on cells
T3 sequence (O15392 whole entry): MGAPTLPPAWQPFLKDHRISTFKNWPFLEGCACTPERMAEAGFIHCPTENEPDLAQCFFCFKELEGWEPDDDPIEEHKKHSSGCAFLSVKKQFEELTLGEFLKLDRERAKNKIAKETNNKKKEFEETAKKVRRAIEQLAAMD
Procedure: as §1

Binder | EC50 [1] [nM] | further results
B1 | 100 | 
B2 | 3 | 
B3 | < 1 | 
B4 | 18 | 
B5 | 29 | 
B6 | 2 | 
B7 | 30 | 
B8 | 1 | 
B9 | 2 | binding result [2]: binds; Kd [3]: 4.2 nM
B10 | < 1 | binding result [2]: binds; Kd [3]: 2.1 nM
B11 |  | binding result [4]: binds; binding result [2]: binds
B12 |  | binding result [4]: binds
B13 |  | binding result [4]: binds
B14 |  | binding result [4]: binds
B15 | 3 | 
B16 | 10 | 
